Experiment [1] concerns the target T1, human Sortilin expressed on HEK293T cells (human, UniProt Q99523 78-830).
T1 construct: also called hSort; HEK293T+ hSort
Nature of the experiment: flow cytometry titration on HEK293T cells expressing human Sortilin, 4 C, apparent KD. (In general: A flow cytometer gives signals particle by particle.)

In experiment [2] the target is T2, Human His-tagged Sortilin (R&D Systems) (human, UniProt Q99523 78-755).
T2 construct: Bought protein; also called His-captured Sortilin (SORT1); Histidine-tagged human Sortilin
In words: Biacore SPR, Sortilin captured by anti-His antibody on CM5 chip, Progranulin flowed over.
Excerpt: Briefly, Sortilin was captured on a CM5 sensor chip that was immobilized with an anti-His antibody (kit from GE). Progranulin was flowed over in HBS binding buffer at various concentrations. Fitting of sensorgrams for affinity estimations was done using BIAevaluation version 3.1.

Experiment [3] has as its target T2, Human His-tagged Sortilin (R&D Systems). Nature of the experiment: ELISA, biotinylated Progranulin on plate-immobilized Sortilin.
Description: (§1) Briefly, human or mouse Sortilin (R&D Systems) was immobilized overnight on an ELISA plate (2 μg/ml in PBS). The plates were washed in wash buffer (PBS+0.05% TWEEN20) and blocked for one hour at 37° C. with binding buffer (PBS+1% BSA). […] Plates were washed thrice in wash buffer and incubated with Streptavidin-HRP (1:200 in binding buffer, R&D Systems) for 20 min. Plates were washed thrice again and incubated with TMB substrate solution until color developed. The reaction was stopped by adding 50 ul of 2N sulfuric acid and color was quantified using a Biotek Synergy H1 plate reader. Data was analyzed and fitted in Prism.
The target of experiment [4] is T3, mouse Sortilin (R&D Systems), recombinant (mouse, UniProt Q6PHU5 74-754, limits assumed).
T3 construct: Bought protein; also called mouse SORT1
The experiment is described as above.
Description: as §1

The target in experiment [5] is T4, mouse Sortilin expressed on HEK293T cells (mouse, UniProt Q6PHU5 74-825).
T4 construct: also called msSort; mSort
In words: flow cytometry titration on HEK293T cells expressing mouse Sortilin, 4 C, apparent KD.

B1: anti-Sortilin antibody S-22-7 (antibody, V domains shown)
VH: QVQLVQSGAEVKKPGSSVKVSCKASGGTFSSYAISWVRQAPGQGLEWMGGIIPGFGRANYAQKFQGRVTITADESTSTAYMELSSLRSEDTAVYYCARQGRKTGYYYYYGMDVWGQGTTVTVSS
VL: DIQMTQSPSTLSASVGDRVTITCRASQSISSWLAWYQQKPGKAPKLLIYKASSLESGVPSRFSGSGSGTEFTLTISSLQPDDFATYYCQQADGHITFGGGTKVEIK
Turning to B1, the Kd in experiment [1] amounted to 2.05 nM.

B2: recombinant human Progranulin (Adipogen) (ligand, UniProt P28799 18-593, looked up)
chain: TRCPDGQFCPVACCLDPGGASYSCCRPLLDKWPTTLSRHLGGPCQVDAHCSAGHSCIFTVSGTSSCCPFPEAVACGDGHHCCPRGFHCSADGRSCFQRSGNNSVGAIQCPDSQFECPDFSTCCVMVDGSWGCCPMPQASCCEDRVHCCPHGAFCDLVHTRCITPTGTHPLAKKLPAQRTNRAVALSSSVMCPDARSRCPDGSTCCELPSGKYGCCPMPNATCCSDHLHCCPQDTVCDLIQSKCLSKENATTDLLTKLPAHTVGDVKCDMEVSCPDGYTCCRLQSGAWGCCPFTQAVCCEDHIHCCPAGFTCDTQKGTCEQGPHQVPWMEKAPAHLSLPDPQALKRDVPCDNVSSCPSSDTCCQLTSGEWGCCPIPEAVCCSDHQHCCPQGYTCVAEGQCQRGSEIVAGLEKMPARRASLSHPRDIGCDQHTSCPVGQTCCPSLGGSWACCQLPHAVCCEDRQHCCPAGYTCNVKARSCEKEVVSAQPATFLARSPHVGVKDVECGEGHFCHDNQTCCRDNRQGWACCPYRQGVCCADRRHCCPAGFRCAARGTKCLRREAPRWDAPLRDPALRQLL
notes: Used unlabelled, biotinylated (NHS-PEG4 or Sulfo-NHS) or labelled with DyLight 650, as the assay says; also called PGRN; hPGRN
For the molecule B2, the Kd stood at 14.3 nM in experiment [2] and 14 nM in experiment [3].

B3: recombinant mouse Progranulin (Adipogen) (ligand, UniProt P28798 18-589, looked up)
chain: TQCPDGQFCPVACCLDQGGANYSCCNPLLDTWPRITSHHLDGSCQTHGHCPAGYSCLLTVSGTSSCCPFSKGVSCGDGYHCCPQGFHCSADGKSCFQMSDNPLGAVQCPGSQFECPDSATCCIMVDGSWGCCPMPQASCCEDRVHCCPHGASCDLVHTRCVSPTGTHTLLKKFPAQKTNRAVSLPFSVVCPDAKTQCPDDSTCCELPTGKYGCCPMPNAICCSDHLHCCPQDTVCDLIQSKCLSKNYTTDLLTKLPGYPVKEVKCDMEVSCPEGYTCCRLNTGAWGCCPFAKAVCCEDHIHCCPAGFQCHTEKGTCEMGILQVPWMKKVIAPLRLPDPQILKSDTPCDDFTRCPTNNTCCKLNSGDWGCCPIPEAVCCSDNQHCCPQGFTCLAQGYCQKGDTMVAGLEKIPARQTTPLQIGDIGCDQHTSCPVGQTCCPSLKGSWACCQLPHAVCCEDRQHCCPAGYTCNVKARTCEKDVDFIQPPVLLTLGPKVGNVECGEGHFCHDNQTCCKDSAGVWACCPYLKGVCCRDGRHCCPGGFHCSARGTKCLRKKIPRWDMFLRDPVPRPLL
notes: Used biotinylated; also called mPGRN; mouse PGRN
Take B3: the Kd in experiment [4] is 40 nM.

B4: anti-Sortilin antibody S-15-6-12 (antibody, V domains shown)
VH: QVQLVQSGAEVKKPGASVKVSCKASGYTFTSRYMSWVRQAPGQGLEWMGIINPVGGSTSYAQKFQGRVTMTRDTSTSTVYMELSSLRSEDTAVYYCARDPSGIALAGPGSPYYRGMDVWGQGTTVTVSS
VL: EIVMTQSPATLSVSPGERATLSCRASQSVSSNLAWYQQKPGQAPRLLIYGASTRATGIPARFSGSGSGTEFTLTISSLQSEDFAVYYCQQARLGPWTFGGGTKVEIK
As for B4, the Kd in experiment [1] amounted to 3.84 nM; in experiment [5], 6.62 nM.

B5: anti-Sortilin antibody S-15-10-12 (antibody, V domains shown)
VH: QVQLVQSGAEVKKPGASVKVSCKASGYTFTKYYMSWVRQAPGQGLEWMGIINPIGGSTSYAQKFQGRVTMTRDTSTSTVYMELSSLRSEDTAVYYCARDPSGIAAAFPAGRYYYGMDVWGQGTTVTVSS
VL: EIVMTQSPATLSVSPGERATLSCRASQSVSSNLAWYQQKPGQAPRLLIYGASTRATGIPARFSGSGSGTEFTLTISSLQSEDFAVYYCQQARLGPWTFGGGTKVEIK
Regarding B5, the Kd is 4.3 nM in experiment [1] and 8.89 nM in experiment [5].

Values taken from patent publication US20190085084A1 (published 2019).
